From US7038112B2, “Fatty acid elongases” (Miami University, priority 1997, dated 2006)
Where two headings read alike, the source gives them in different places.

Experiments:
[1] = In vitro fatty acid elongation assay with yeast microsomes, 18:0 acyl-CoA substrate; assay type: biochemical, Saccharomyces cerevisiae; conditions: for (%) 20:0 acyl CoA / (%) 22:0 acyl CoA / (%) 24:0 acyl CoA / (%) 26:0 acyl CoA / (%) Total / Rate, 20:0 acyl CoA / Rate, 22:0 acyl CoA / Rate, 24:0 acyl CoA / Rate, 26:0 acyl CoA / Rate, Total: second experiment
Description: (§1) Transformed yeast cells were grown in the presence of either glucose or galactose (2% w/v) as described in Example 1. Cells were harvested by centrifugation at 5000×g for 10 min and washed with 10 ml ice cold isolation buffer (IB), which contains 80 mM Hepes-KOH, pH 7.2, 5 mM EGTA, 5 mM EDTA, 10 mM KC1, 320 mM sucrose and 2 mM DTT). Cells were then resuspended in enough IB to fill a 1.7 ml tube containing 700 μl of 0.5 μm glass beads and yeast microsomes were isolated from the cells essentially as described in Tillman, T. and Bell, R., J. Biol. Chem. 261:9144–9149 (1986). The microsomal membrane pellet was recovered by centrifugation at 252,000×g for 60 min. The pellet was rinsed by resuspending in 40 ml fresh IB and again recovered by centrifugation at 252000×g for 60 min. Microsomal pellets were resuspended in a minimal volume of IB, and the protein concentration adjusted to 2.5 μg μl^−1 by addition of IB containing 15% glycerol. Microsomes were frozen on dry ice and stored at −80° C. The protein concentration in microsomes was determined by the Bradford method (Bradford, 1976).
(§2) Fatty acid elongase activity was measured essentially as described in Hlousek-Radojcic, A. et al., Plant J. 8:803–809 (1995). Briefly, the standard elongation reaction mix contained 80 mM Hepes-KOH, pH 7.2, 20 mM MgCl2, 500 μM NADPH, 1 mM ATP, 100 μM malonyl-CoA, 10 μM CoA-SH and 15 μM radioactive acyl-CoA substrate. The radiolabeled substrate was either [1^−14C]18:1-CoA (50 uCi μmol^−1), [1^−14C]18:0-CoA (55 uCi μmol^−1), or [1^−14C]16:0-CoA (54 uCi μmol^−1). The reaction was initiated by the addition of yeast microsomes (5 μg protein) and the mixture incubated at 30° C. for the indicated period of time. The final reaction volume was 25 μl.
(§3) Methyl esters of the acyl-CoA elongation products were prepared as described in Example 1. Methyl esters were separated on reversed phase silica gel KC18 TLC plates (Whatman, […] thick), quantified by phosphorimaging, and analyzed on by ImageQuant software (Molecular Dynamics, Inc., Sunnyvale, Calif.). The detection limit for each product is about 0.001 nanomoles per min. per mg microsomal protein, depending on the phosphorimage exposure time.
(§4) Yeast cultures containing full-length EL1 in λYES and full-length EL2 in pYEUra3 were grown in the presence of galactose or glucose as described in Example 2. Microsomes were then prepared from each of the cultures and fatty acid elongation assays were carried out as described in Example 2.
(§5) In the first experiment, microsomes were prepared from galactose-induced cultures of EL1, EL2 and FAE1, and incubated with either [1-^14C] 18:0 acyl-CoA or [1-^14C] 18:1 acyl-CoA as substrate. The amounts of various reaction products synthesized after 30 minutes (min) were determined as described in Example 2.
In a second experiment, microsomes were prepared from galactose-induced and from glucose-repressed yeast cultures containing EL1 or EL2 coding sequences. The microsomal preparations were incubated with either 18:0 acyl-CoA or 18:1 acyl-CoA as substrate and the fatty acid reaction products determined as described above. […]

[2] = assay type: biochemical, Saccharomyces cerevisiae; conditions: for (%) 20:1 acyl CoA / (%) 22:1 acyl CoA / (%) 24:1 acyl CoA / (%) 26:1 acyl CoA / (%) Total / Rate, 20:1 acyl CoA / Rate, 22:1 acyl CoA / Rate, 24:1 acyl CoA / Rate, 26:1 acyl CoA / Rate, Total: second experiment
Description: as §1, §2, §3, §4, §5
In a second experiment, microsomes were prepared from galactose-induced and from glucose-repressed yeast cultures containing EL1 or EL2 coding sequences. The microsomal preparations were incubated with either 18:0 acyl-CoA or 18:1 acyl-CoA as substrate and the fatty acid reaction products determined as described above.

[3] = 18:0-CoA substrate, +Galactose (induced)
[4] = 18:0-CoA substrate, +Glucose (uninduced)
[5] = 18:0-CoA substrate, galactose-induced, 30 min, first experiment
[6] = +Gal, standard reaction mix, average of two experiments
[7] = +Glu, standard reaction mix, one experiment
[8] = galactose-induced, −A&C (ATP and Coenzyme A omitted), average of two experiments
[9] = galactose-induced, −ATP, average of two experiments
[10] = galactose-induced, −CoA, average of two experiments
[11] = 18:1-CoA substrate, +Galactose (induced)
[12] = 18:1-CoA substrate, +Glucose (uninduced)
[13] = 18:1-CoA substrate, galactose-induced, 30 min, first experiment

B1: EL1: Arabidopsis β-keto acyl synthase gene product (SEQ ID NO:2) expressed in yeast microsomes (protein, listed as Arabidopsis thaliana)
chain: MDRERLTAEMAFRDSSSAVIRIRRRLPDLLTSVKLKYVKLGLHNSCNVTTILFFLIILPLTGTVLVQLTGLTFDTFSELWSNQAVQLDTATRLTCLVFLSFVLTLYVANRSKPVYLVDFSCYKPEDERKISVDSFLTMTEENGSFTDDTVQFQQRISNRAGLGDETYLPRGITSTPPKLNMSEARAEAEAVMFGALDSLFEKTGIKPAEVGILIVNCSLFNPTPSLSAMIVNHYKMREDIKSYNLGGMGCSAGLISIDLANNLLKANPNSYAVVVSTENITLNWYFGNDRSMLLCNCIFRMGGAAILLSNRRQDRKKSKYSLVNVVRTHKGSDDKNYNCVYQKEDERGTIGVSLARELMSVAGDALKTNITTLGPMVLPLSEQLMFLISLVKRKMFKLKVKPYIPDFKLAFEHFCIHAGGRAVLDEVQKNLDLKDWHMEPSRMTLHRFGNTSSSSLWYEMAYTEAKGRVKAGDRLWQIAFGSGFKCNSAVWKALRPVSTEEMTGNAWAGSIDQYPVKVVQ
For B1, the “(%) 20:0 acyl CoA” value [1, 3] was 55.8%, the “(%) 22:0 acyl CoA” value [1, 3] was 17.4% and the “(%) 24:0 acyl CoA” value [1, 3] was 15.3%. The “(%) 26:0 acyl CoA” value [1, 3] was 11.5%, the “(%) Total” value [1, 3] was 100.0% and the “Rate, 20:0 acyl CoA” value [1, 3] was 0.074 Nanomoles/minute/mg of microsomal protein. For the same molecule, the “Rate, 22:0 acyl CoA” value [1, 3] was 0.023 Nanomoles/minute/mg of microsomal protein, the “Rate, 24:0 acyl CoA” value [1, 3] was 0.020 Nanomoles/minute/mg of microsomal protein and the “Rate, 26:0 acyl CoA” value [1, 3] was 0.015 Nanomoles/minute/mg of microsomal protein. For the same molecule, the “Rate, Total” value [1, 3] was 0.133 Nanomoles/minute/mg of microsomal protein, the “(%) 20:0 acyl CoA” value [1, 4] was 100.0% and the “(%) 22:0 acyl CoA” value [1, 4] was 0.0%. For the same molecule, the “(%) 24:0 acyl CoA” value [1, 4] was 0.0%, the “(%) 26:0 acyl CoA” value [1, 4] was 0.0% and the “(%) Total” value [1, 4] was 100.0%. For the same molecule, the “Rate, 20:0 acyl CoA” value [1, 4] was 0.007 Nanomoles/minute/mg of microsomal protein, the “Rate, 22:0 acyl CoA” value [1, 4] was 0.000 Nanomoles/minute/mg of microsomal protein and the “Rate, 24:0 acyl CoA” value [1, 4] was 0.000 Nanomoles/minute/mg of microsomal protein. The “Rate, 26:0 acyl CoA” value [1, 4] was 0.000 Nanomoles/minute/mg of microsomal protein, the “Rate, Total” value [1, 4] was 0.007 Nanomoles/minute/mg of microsomal protein and the “effect of omission of ATP and/or CoA on overall amounts of VLCFAs synthesized” value ([1]; 18:0-CoA substrate, galactose-induced) was “does not have a significant effect”. The “(%) 20:0 acyl-CoA product” value [1, 5] was 38.8%, the “(%) 22:0 acyl-CoA product” value [1, 5] was 21.9% and the “(%) 24:0 acyl-CoA product” value [1, 5] was 19.9%. The “(%) 26:0 acyl-CoA product” value [1, 5] was 19.4%, the “(%) Total acyl-CoA products” value [1, 5] was 100.0% and the “Rate, 20:0 acyl-CoA product” value [1, 5] was 0.084 Nanomoles/minute/mg of microsomal protein. The “Rate, 22:0 acyl-CoA product” value [1, 5] was 0.047 Nanomoles/minute/mg of microsomal protein, the “Rate, 24:0 acyl-CoA product” value [1, 5] was 0.043 Nanomoles/minute/mg of microsomal protein and the “Rate, 26:0 acyl-CoA product” value [1, 5] was 0.042 Nanomoles/minute/mg of microsomal protein. The “Rate, Total acyl-CoA products” value [1, 5] was 0.216 Nanomoles/minute/mg of microsomal protein, the “20:0 product as a percent of total products formed” value (“20:0 product as a percent” for short) [1, 6] was 46.2% and the “22:0 product as a percent of total products formed” value (“22:0 product as a percent” below) [1, 6] was 18.7%. The “24:0 product as a percent of total products formed” value (shortened to “24:0 product as a percent”) [1, 6] was 18.1%, the “26:0 product as a percent of total products formed” value (“26:0 product as a percent” for short) [1, 6] was 17.1% and the “Total products as a percent of total products formed” value (“Total products as a percent” below) [1, 6] was 100.0%. The “20:0 product as a percent” value [1, 7] was 53.9%, the “22:0 product as a percent” value [1, 7] was 14.4% and the “24:0 product as a percent” value [1, 7] was 18.5%. For the same molecule, the “26:0 product as a percent” value [1, 7] was 13.2%, the “Total products as a percent” value [1, 7] was 100.0% and the “increase in overall elongase activity on induction with galactose, 18:0 acyl CoA substrate” value ([1]; galactose-induced vs glucose) was “about 19 fold”. For the same molecule, the “20:0 product as a percent” value [1, 8] was 41.7%, the “22:0 product as a percent” value [1, 8] was 19.4% and the “24:0 product as a percent” value [1, 8] was 16.7%. The “26:0 product as a percent” value [1, 8] was 22.3%, the “Total products as a percent” value [1, 8] was 100.0% and the “20:0 product as a percent” value [1, 9] was 34.4%. For the same molecule, the “22:0 product as a percent” value [1, 9] was 13.7%, the “24:0 product as a percent” value [1, 9] was 20.6% and the “26:0 product as a percent” value [1, 9] was 31.4%. The “Total products as a percent” value [1, 9] was 100.0%, the “20:0 product as a percent” value [1, 10] was 47.8% and the “22:0 product as a percent” value [1, 10] was 18.0%. The “24:0 product as a percent” value [1, 10] was 19.1%, the “26:0 product as a percent” value [1, 10] was 15.2% and the “Total products as a percent” value [1, 10] was 100.0%. For the same molecule, the “18:0-CoA elongation activity, +Glu” value ([1]; microsomes from glucose-grown cultures, standard reaction mix) was “.037 nanomoles/minute/mg of microsomal protein”, the “increase in 18:1 CoA elongation, microsomes from induced vs uninduced cells” value [2] was “about 1.3 fold” and the “(%) 20:1 acyl CoA” value [2, 11] was 100.0%. The “(%) 22:1 acyl CoA” value [2, 11] was 0.0%, the “(%) 24:1 acyl CoA” value [2, 11] was 0.0% and the “(%) 26:1 acyl CoA” value [2, 11] was 0.0%. For the same molecule, the “(%) Total” value [2, 11] was 100.0%, the “Rate, 20:1 acyl CoA” value [2, 11] was 0.081 Nanomoles/minute/mg of microsomal protein and the “Rate, 22:1 acyl CoA” value [2, 11] was 0.000 Nanomoles/minute/mg of microsomal protein. The “Rate, 24:1 acyl CoA” value [2, 11] was 0.000 Nanomoles/minute/mg of microsomal protein, the “Rate, 26:1 acyl CoA” value [2, 11] was 0.000 Nanomoles/minute/mg of microsomal protein and the “Rate, Total” value [2, 11] was 0.081 Nanomoles/minute/mg of microsomal protein. For the same molecule, the “(%) 20:1 acyl CoA” value [2, 12] was 100.0%, the “(%) 22:1 acyl CoA” value [2, 12] was 0.0% and the “(%) 24:1 acyl CoA” value [2, 12] was 0.0%. The “(%) 26:1 acyl CoA” value [2, 12] was 0.0%, the “(%) Total” value [2, 12] was 100.0% and the “Rate, 20:1 acyl CoA” value [2, 12] was 0.062 Nanomoles/minute/mg of microsomal protein. For the same molecule, the “Rate, 22:1 acyl CoA” value [2, 12] was 0.000 Nanomoles/minute/mg of microsomal protein, the “Rate, 24:1 acyl CoA” value [2, 12] was 0.000 Nanomoles/minute/mg of microsomal protein and the “Rate, 26:1 acyl CoA” value [2, 12] was 0.000 Nanomoles/minute/mg of microsomal protein. The “Rate, Total” value [2, 12] was 0.062 Nanomoles/minute/mg of microsomal protein, the “(%) 20:1 acyl-CoA product” value [2, 13] was 80.8% and the “(%) 22:1 acyl-CoA product” value [2, 13] was 19.2%. For the same molecule, the “(%) 24:1 acyl-CoA product” value [2, 13] was 0.0%, the “(%) 26:1 acyl-CoA product” value [2, 13] was 0.0% and the “(%) Total acyl-CoA products” value [2, 13] was 100.0%. For the same molecule, the “Rate, 20:1 acyl-CoA product” value [2, 13] was 0.111 Nanomoles/minute/mg of microsomal protein, the “Rate, 22:1 acyl-CoA product” value [2, 13] was 0.026 Nanomoles/minute/mg of microsomal protein and the “Rate, 24:1 acyl-CoA product” value [2, 13] was 0.0 Nanomoles/minute/mg of microsomal protein. The “Rate, 26:1 acyl-CoA product” value [2, 13] was 0.0 Nanomoles/minute/mg of microsomal protein and the “Rate, Total acyl-CoA products” value [2, 13] was 0.137 Nanomoles/minute/mg of microsomal protein.
